Assay results from patent publication US20250296984A1, “THERAPEUTIC AND DIAGNOSTIC AGENTS AND USES THEREOF” (priority 2022, published 2025).

Columns and labels:
[1] = tested on: US28 negative CHO control cells; assay: Flow cytometry off-target binding to US28 negative control CHO cells; set-up: species or system Chinese Hamster; details: 1:10 dilution (w/v), after removing binding to blank and secondary Ab controls
Description: FIG. 4. The positive surface binding of the clone US28-13-5G6-1D3 on CHO-US28-A1 cells was compared with the US28 negative CHO control cells. The clone US28-13-5G6-1D3 Ab bound 15-fold more to the surface of the US28 positive CHO-US28-A1 cells than to the US28 negative CHO cells in 1:50 (w/v).
FIG. 7. Surface binding of 13-5G6-1D3 rAb on CHO-US28-A1 cells, and on respective control CHO cells were validated by using FACS analysis. The bars showing results for CHO cells are colored with dark grey whereas the bars showing results for CHO-US28-A1 cells are colored with pale grey color. […] The surface binding of the 13-5G6-1D3 rAb to CHO cells was only measured in 1:10 dilution (w/v) and was 0.77% after removing the binding to blank and anti-mouse IgG-Alexa 488 secondary Ab controls.
FIG. 22. Percentage off-target binding of various ECD3-binding molecules of the invention (A) or various SEQ ID NO: 177-binding molecules of the invention (B), in comparison with VUN100, as assessed by binding to control CHO cells.
In a further embodiment, it is preferred that a binding molecule of the present invention binds preferentially to US28-expressing cells (such as CHO cells engineered to express US28) compared to its binding of US28-negative cells (such as wildtype CHO cells), for example, at a 1:50 (w/v) dilution, for example as determined by flow cytometry assay. […]

Peptide 3 ([…]) = Peptide 3 ([…]) (Human cytomegalovirus, UniProt P69332); assay: HuProt Human Proteome Microarray, control peptide; type: binding, HCMV
Description: The HuProt™ Human Proteome Microarray provides the largest number of unique, full-length, individually purified human proteins on a single microscope slide. It provides >21,000 unique human proteins, isoform variants, and protein fragments—covering 16,794 unique genes. This includes 15,889 of the 19,613 canonical human proteins described in the Human Protein Atlas, with broad coverage across protein subclasses. This allows thousands of interactions to be profiled in a high-throughput manner. The full-length recombinant proteins are expressed in the yeast S. cerevisiae, purified, and printed on glass slides in duplicate along with a set of control proteins (GST, BSA, histones, IgG, etc.). The full list of the different proteins included in the HuProt™ Human Proteome Microarray as used in this Example is provided as “List B” in the Research Disclosures publication (ISSN 0374-4353, Questel Ireland Ltd) with database numbers 707018, 707019 and 707020, each entitled “Large scale protein arrange target protein identities” and each digitally published on 27 Jan. 2023, the contents of each of which are incorporated herein by reference in their entirety, fo the purposes of the disclosure of the proteins defined by “List B”. “List B” begins in Research Disclosures publication 707018, is continued in Research Disclosures publication 707019, and concludes Research Disclosures publications 707020, and so the three publications are to be read consecutively as a single disclosure of the “List B” proteins. The HuProt™ microarray is not restricted to a particular type of surface coating, although the default is glass coated with ultrathin nitrocellulose film for the non-covalent, yet irreversible, capture of active proteins to the surface.
Samples of humanised 7B1F3 and mouse 7B1F3 antibodies were analysed for binding specificities on HuProt™ human proteome arrays. A peptide with the sequence TDVLNQSKPVTL (“Peptide 3”) was added to the arrays at 0.1 mg/ml as a control.
After blocking, the arrays were probed with the antibody samples (0.1 μg/ml) at room temperature for 1 hour. Then the arrays were washed with TBST for 10 min×3 and probed with Alexa647-anti-human IgG Fc or Alexa647-anti-mouse IgG secondary antibodies under conditions optimized by CDI Labs for signal detection.
• Non-specific hits that directly bind to the secondary antibodies were eliminated from the analysis of the samples. • CDI software was used to quantify the specificity of each individual sample to specific proteins on the array based on Z Scores. • Z score is the average Z score of the duplicate spots of a given protein (each protein is printed in duplicate on a HuProt™ array). The Z score of each spot on a given array is calculated according to the algorithm below:
Z=[F635−F635(avg)]/F635(std) • F635(avg) and F635(std) are the average and standard deviation of the F635 values of all spots on the array, respectively. • S score is the difference of the Z Scores of a given protein and the one ranked next to it. If the S score of the top hit is >3, the antibody is considered to be highly specific for the top hit. • F635 is the average foreground signal intensity of 2 replicate spots of a given protein in the detection channel (635 nm). • B635 is the average background signal intensity of 2 replicate spots of a given protein in the detection channel (635 nm).

[2] = Table 9, top hit Peptide 3, antibody 0.1 μg/ml

B1: 13-5G6-1D3 rAb: recombinant antibody product of US28-13-5G6-1D3 produced in HEK293-F cells (antibody)
heavy: EVKLVESGGGLVQPGGSLRLACATSGFTFTDYYMSWVRQPPGKALEWLGFIRSKANGYTTEYSASVKGRFTISRDNSQSILYLQMNTLRSEDSATYYCARDERRTAWLAYWGQGTLVTVSAAKTTPPSVYPLAPGSAAQTNSMVTLGCLVKGYFPEPVTVTWNSGSLSSGVHTFPAVLQSDLYTLSSSVTVPSSTWPSETVTCNVAHPASSTKVDKKIVPRDCGCKPCICTVPEVSSVFIFPPKPKDVLTITLTPKVTCVVVDISKDDPEVQFSWFVDDVEVHTAQTQPREEQFNSTFRSVSELPIMHQDWLNGKEFKCRVNSAAFPAPIEKTISKTKGRPKAPQVYTIPPPKEQMAKDKVSLTCMITDFFPEDITVEWQWNGQPAENYKNTQPIMDTDGSYFIYSKLNVQKSNWEAGNTFTCSVLHEGLHNHHTEKSLSHSPGK
light: DVLMTQTPLSLPVSLGDQASISCRSSQSIVHSNGNTYLDWYLQKPGQSPKLLIYKVSNRFSGVPDRFSGSGSGTDFTLKISRVEAEDLGVYYCFQGSHVPTWTFGGGTKLEIKRADAAPTVSIFPPSSEQLTSGGASVVCFLNNFYPKDINVKWKIDGSERQNGVLNSWTDQDSKDSTYSMSSTLTLTKDEYERHNSYTCEATHKTSTSPIVKSFNRNEC
- surface binding to CHO cells, percent of cells [1]: 0.77%

B2: 7B1F3: mouse IgG1 kappa antibody against US28 ECD1 Peptide-N; VH SEQ ID NO: 211, VL SEQ ID NO: 213 (antibody, V domains shown)
VH: EVQLQQSGAELAKPGASVKMSCKASGYTFTNYWMHWVKQRPGQGLEWIGYVNPRTGYTEYNQKFKDKATLTADKSSRTAYMQLSSLTSEDSAVYSCARILNGTGFAYWGQGTLVTVSA
VL: DIVLTQSPSSLTVSVGEKFTMSCKSSQSLLYSSNQKNYLAWYQQKPGQSPKLLIYWASTRESGVPDRFTGSGSGTDFTLAISSVKPEDLAIYYCQQYYSFPLTFGAGTKLEIK
modifications: Mature form of VH sequence of 7B1F3, without the leader sequence; Mature form of VL sequence of 7B1F3, without the leader sequence
- S Score (Peptide 3 ([…]); Protein: Peptide 3): 116.095
- Z Score (Peptide 3 ([…]); Protein: Peptide 3): 145.092
- F635 (Peptide 3 ([…]); Protein: Peptide 3, antibody 0.1 μg/ml): 49972
- Peptide 3 Signal (Peptide 3 ([…]); Table 9, antibody 0.1 μg/ml): 49972
- Top Hit (Peptide 3 ([…]); Table 9, antibody 0.1 μg/ml): Peptide 3
- S Score (Peptide 3 ([…]); [2]): 116.095
- Z Score (Peptide 3 ([…]); [2]): 145.092
- Signal (Peptide 3 ([…]); Table 9, top hit, 65535 is the saturation signal intensity): 49972
